Measured values as given in US20190127480A1 (Regeneron, published 2019).

Experiments:
[1] = molecular target: T1, human CD3 expressed on cells (Jurkat cells; human T-cells of PBMC) (human, UniProt P09693 23-182; P20963 22-164); assay: cell-based or functional assay
[2] = molecular target: T1, human CD3 expressed on cells (Jurkat …); assay: cell-based or functional assay; remark: listed apart in the source
[3] = molecular target: T1, human CD3 expressed on cells (Jurkat …); assay: FACS titration on Jurkat cells (CD3+ human T-cell line)
Method: FACS data was acquired using the following protocol: Cells at 2×10⁵ per well were incubated with serially diluted antibodies for 30 min on ice. Post incubation, cells were washed and secondary antibody was added and incubated for an additional 30 minutes. After incubation, cells were washed, re-suspended in cold PBS containing 1% BSA and analyzed by flow cytometry with viable Jurkat cells gated by side and forward scatters. The EC₅₀s for cell binding titration were determined using Prism software with values calculated using a 4-parameter non-linear regression analysis.

T1 sequence (chain, as listed by the source, chain 1 of 4): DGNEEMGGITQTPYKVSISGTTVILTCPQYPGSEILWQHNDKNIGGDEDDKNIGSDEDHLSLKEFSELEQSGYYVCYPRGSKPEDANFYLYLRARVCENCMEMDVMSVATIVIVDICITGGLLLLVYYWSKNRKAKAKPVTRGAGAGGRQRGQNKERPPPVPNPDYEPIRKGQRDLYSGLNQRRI
T1 sequence (chain, as listed by the source, chain 2 of 4): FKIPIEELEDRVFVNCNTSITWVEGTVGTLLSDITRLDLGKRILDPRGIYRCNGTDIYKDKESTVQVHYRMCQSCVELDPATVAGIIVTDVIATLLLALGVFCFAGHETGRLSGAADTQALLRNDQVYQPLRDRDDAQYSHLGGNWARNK
T1 sequence (P09693 23-182, chain 3 of 4): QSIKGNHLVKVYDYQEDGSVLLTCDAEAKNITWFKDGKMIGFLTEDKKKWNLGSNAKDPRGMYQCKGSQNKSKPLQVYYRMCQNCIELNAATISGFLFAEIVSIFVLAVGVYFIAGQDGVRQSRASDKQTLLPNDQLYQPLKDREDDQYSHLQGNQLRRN
T1 sequence (P20963 22-164, chain 4 of 4): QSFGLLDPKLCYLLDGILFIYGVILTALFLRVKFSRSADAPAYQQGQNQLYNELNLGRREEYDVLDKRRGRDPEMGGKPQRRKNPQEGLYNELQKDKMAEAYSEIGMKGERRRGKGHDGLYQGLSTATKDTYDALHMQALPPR

B1: H1H5753B (antibody, V domains shown)
VH: QVQLVESGGGLVQPGGSLRLSCAASYFTFSSFAMNWVRQAPGQGLEWVSAISGRVSAISGSGGITYYADSVKGRFIISRDNSKNTLYLQMSGLRAEDTAVYYCAKGPYLTTVTPFDYWGQGTLVTVSS
VL: DIQLTQSPSSVSASVGDRVTITCRASQGISSWLAWYQQKPGKAPKLLIYAVSSLQNGVPSRFSGSGSGTDFTLTISSLQPEDFATYYCQQANSFPFTFGPGTKLEIK
EC50 [M] hPBMC Proliferation [1]: 9.14e-11 M
U937 Cytotoxicity Human T-cells [2]: 379 pM

B2: H1H5752P (antibody, human IgG1, V domains shown)
VH: QVQLVESGGGVVQPGRSLRPSCAASGFSFRDYGMHWVRQAPGKGLEWMAHIWYNGKNKYYADSVKGRFTISRDNSKNTLYLQMNSLRPEDTAVYYCARDGVSARGTPFDYWGQGTLVTVSS
VL: ETTLTQSPAFMSAAPGDKVSISCIASQYIDDDVNWYQQKPGETAIFIIQEASTLVPGISPRFSGSGYGTHFTLTINNIDSEDAAFYFCLQHDNFPYTFGQGTKLEIK
notes: H1H: human IgG1 Fc
EC50 [M] hPBMC Proliferation [1]: 1.09e-12 M
EC50 [3]: 0.343 nM
U937 Cytotoxicity Human T-cells [2]: 18.5 pM

B3: H1H5755B (antibody, human IgG1, V domains shown)
VH: EVQLVESGGGVVQPGRSLRLSCAASGFTFSNYGMHWVRQAPGKGLEWVTVILHDGSYKYYADSVKGRFTISRDNSKNTLHLQMNSLRTEDTAVYYCAKGPMFRGVPYNHYYGMDVWGQGTTVTVSS
VL: DIQMTQSPSSLSASVGDRVTITCRASQGIRNDLGWYQQKPGKAPKRLIYAASSLQSGVSSRFSGSGSGTEFTLTISSLQPEDFATYYCLQHNSYPYTFGQGTKVEIKR
notes: H1H: human IgG1 Fc
EC50 [M] hPBMC Proliferation [1]: 4.24e-12 M
EC50 [3]: 1.23 nM
U937 Cytotoxicity Human T-cells [2]: 51.6 pM

B4: H1H5757B (antibody, human IgG1, V domains shown)
VH: EVQLVESGGGVVQPGRSLRLSCAASGFTFSSYGMHWVRQAPGKGLEWVTVILHDGSNRYSADSVKGRFTISRDNSKNTLYLQMNILRVEDTAVYYCTKGAMVRGVPYNHYYGMDVWGQGTTVTVSS
VL: DIQMTQSPSSLSASVGDRVTITCRASQGIRNDLGWYQQKPGKAPKRLIYAASILQSGVPSRFSGSGSGTEFTLTISSLQPEDFATYYCLQHNSYPYTFGQGTKLEIKR
notes: H1H: human IgG1 Fc
EC50 [M] hPBMC Proliferation [1]: 4.86e-12 M
EC50 [3]: 3.38 nM
U937 Cytotoxicity Human T-cells [2]: 96.5 pM

B5: H1H5758B (antibody, human IgG1, V domains shown)
VH: EVQLVESGGGVVQPGRSLRLSCAASGFTFSSYGMHWVRQAPGKGLEWVTVILHDGSNRYYADSVKGRFTISRDNSKNTLYLQMNILRAEDTAVYYCTKGAMVRGVPYNHYYGMDVWGQGTTVTVSS
VL: DIVMTQSPSSLSASVGDRVTITCRASQGIRNDLGWYQQKPGKAPKRLIYAASNLQSGVPSRFSGSGSGTEFTLTISSLQPEDFATYYCLQHNSYPYTFGQGTKLEIKR
notes: H1H: human IgG1 Fc
EC50 [M] hPBMC Proliferation [1]: 2.13e-12 M
EC50 [3]: 1.9 nM
U937 Cytotoxicity Human T-cells [2]: 88600 pM

B6: H1H5782P (antibody, human IgG1, V domains shown)
VH: EVQLVESGGGLVQPGRSLRLSCAASGFTFDDYAMHWVRQAPGKGLEWVSGISWNSGSKDYADSVKGRFTISRDNTRNSLFLQMNSLRTEDTALYYCAKDKSGYGSFYYGMDVWGQGTTVTVSS
VL: not shown
notes: H1H: human IgG1 Fc
EC50 [M] hPBMC Proliferation [1]: 5.17e-12 M
binding result [3]: no binding
U937 Cytotoxicity Human T-cells [2]: 5.18 pM

B7: H1H5793B (antibody, human IgG1, V domains shown)
VH: QVQLVQSGTEVKKPGASMKVSCKASGYTFTGYYIHWVRQAPGQGLEWMGWINPNSDVTKYAQKFQGRVTLTRDTSISAAYIDLSRLRSDDTAIYYCARMGDGAVFDYWGQGTLVTVSS
VL: DIQLTQSPSSLSASVGDRVTITCRASQRISSYLNWYQQKPGKAPKVLISVASSLQSGVPSRFSGSGFGTDFTLTISSLQPEDSASYYCQQSYNTPLTFGGGTKLEIKR
notes: H1H: human IgG1 Fc
EC50 [M] hPBMC Proliferation [1]: 3.28e-12 M
EC50 [3]: 4.62 nM
U937 Cytotoxicity Human T-cells [2]: 88.5 pM

B8: H1H5797B (antibody, human IgG1, V domains shown)
VH: QVQLVQSGTEVKKPGASVKVSCKASGYTFTGYYMHWVRQAPGQGLEWMGWINPNSDVTNYAQKFQGRVTLTRDTSISTAYIDLSRLRSDDTAIYYCARMGDGAVFDYWGQGTLVTVSS
VL: DIQMTQSPSSLSASVGDRVTITCRASQRISSYLNWYQQKPGKAPKVLISVASSLQSGVPSRFSGSGSGTDFTLTISSLQPEDFASYYCQQSYNTPLTFGGGTKVEIKR
notes: H1H: human IgG1 Fc
EC50 [M] hPBMC Proliferation [1]: 1.07e-11 M
EC50 [3]: 39.6 nM
U937 Cytotoxicity Human T-cells [2]: 576 pM

B9: H1H5786B (antibody, human IgG1, V domains shown)
VH: QVQLVESGAEVKKPGASVKVSCKTSGYTFTGYYMHWIRQAPGQGLEWMGWINPKSGGTNYAQKFQGRVTMTRDTSISTAYMELSRLRSDDMAVYYCARMGDGAVFDFWGQGTLVTVSS
VL: AIQMTQSPSSLSASVGDRVTITCRASQRISSFLNWYQQKPGKAPKLLIYTASNLQNGVPSRFSGSGSGTDFTLTISSLQPEDFATYYCQQSYRTPLTFGGGTKVEIKR
notes: H1H: human IgG1 Fc
EC50 [M] hPBMC Proliferation [1]: 1.79e-12 M
EC50 [3]: 1.1 nM
U937 Cytotoxicity Human T-cells [2]: 61 pM

B10: H1H5790B (antibody, human IgG1, V domains shown)
VH: EVQLVESGGGVVQPGRSLRLSCAASGFTFSYYGMHWVRQAPGKGLEWVAVISFDGKNKYYADSVMGRFTISRDNSKNTLYLQMNSLRAEDSAVFFCARSYDILTGYGAGYSYHYGMDVWGQGTTVTVSS
VL: AIQMTQSPSSLSASVGDRVTITCRASQRISSFLNWYQQKPGKAPKLLIYTASNLQNGVPSRFSGSGSGTDFTLTISSLQPEDFATYYCQQSYRTPLTFGGGTKVEIKR
notes: H1H: human IgG1 Fc
EC50 [M] hPBMC Proliferation [1]: 2.71e-12 M
EC50 [3]: 3.55 nM
U937 Cytotoxicity Human T-cells [2]: 87.1 pM

B11: H1H5792B (antibody, human IgG1, V domains shown)
VH: QVQLVESGGGVVQPGRSLRLSCAASGFTFSSYGMHWVRQAPGKGLEWVSTISFDGSNKYYADSVKGRFTISRDNSKNTLYLQMNSLRPEDTAVYYCAKGGGTSGSYFYYGMDVWGQGTTVTVSS
VL: AIQMTQSPSSLSASVGDRVTITCRASQRISSFLNWYQQKPGKAPKLLIYTASNLQNGVPSRFSGSGSGTDFTLTISSLQPEDFATYYCQQSYRTPLTFGGGTKLEIKR
notes: H1H: human IgG1 Fc
EC50 [M] hPBMC Proliferation [1]: 6.47e-12 M
EC50 [3]: 5.87 nM
U937 Cytotoxicity Human T-cells [2]: 140 pM

B12: H1H5791B (antibody, human IgG1, V domains shown)
VH: QVQLVESGAEVKKPGASVKVSCKTSGYTLSGYYMHWMRQAPGQGLEWMGWINPKSGVTNYAQKFQDRVAMTRDTSISTAYMELSRLRSDDTAVYYCARMGDGAVFDFWAQGTLVTVSS
VL: DIQLTQSPSSLSASVGDRVTITCRASQRISSFLNWYQQKPGKAPKLLIYTASNLQNGVPSRFSGSGSGTDFTLTISSLQPEDFATYYCQQSYRTPLTFGGGTKLEIKR
notes: H1H: human IgG1 Fc
EC50 [M] hPBMC Proliferation [1]: 1.75e-12 M
EC50 [3]: 3.77 nM
U937 Cytotoxicity Human T-cells [2]: 80.1 pM

B13: H1H5763P (antibody, human IgG1, V domains shown)
VH: QVQLVESGGGVVQPGRSLRLSCAASGLTFSSYGMHWVRQAPGKGLEWVAVISYDGSNKYYTDSVKGRFTISRDNSKNTLYLQMNSLRAEDTAVYYCAKGAMVRGVPYNYYYGMDVWGQGTTVTVSS
VL: DIQMTQSPSSLSASVGDRVTITCRASQGIRNDLGWYQQKPGKAPKRLIYAASSLQSGVPSRFSGSGSGTEFTLTISSLQPEDFATYYCLQHNSYPYTFGQGTKLEIK
notes: H1H: human IgG1 Fc
EC50 [M] hPBMC Proliferation [1]: 3.11e-13 M
EC50 [3]: 2.76 nM
